Results on 4 molecules are retold here after patent US20200317768A1 (published 2020).

For assay [1], the target named is T1, human FcγRIIaR extracellular domain with C-terminal His-tag (human, UniProt P12318 34-217).
T1 construct: Expressed in FreeStyle 293 cells and purified; also called human FcγRIIa (type R); FcgRIIaR; not shown: C-terminal His-tag
T1 chain: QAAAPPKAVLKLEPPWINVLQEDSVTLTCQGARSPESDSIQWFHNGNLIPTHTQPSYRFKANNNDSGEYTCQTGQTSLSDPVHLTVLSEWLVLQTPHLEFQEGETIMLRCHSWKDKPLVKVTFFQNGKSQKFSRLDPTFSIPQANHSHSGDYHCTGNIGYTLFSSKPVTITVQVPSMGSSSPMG
Briefly: SPR (Biacore); KD of SG1 divided by KD of the variant for this FcgR.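 Also: relative to parent M103205H795-SG1 carrying the SG1 human heavy chain constant region.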

Assay [2] addresses T2, cynomolgus monkey FcγRIIa1 extracellular domain with C-terminal His-tag (cynomolgus monkey).
T2 construct: Expressed in FreeStyle 293 cells and purified; also called cyno FcγRIIa1; cynoFcgRIIa1; not shown: C-terminal His-tag
T2 chain: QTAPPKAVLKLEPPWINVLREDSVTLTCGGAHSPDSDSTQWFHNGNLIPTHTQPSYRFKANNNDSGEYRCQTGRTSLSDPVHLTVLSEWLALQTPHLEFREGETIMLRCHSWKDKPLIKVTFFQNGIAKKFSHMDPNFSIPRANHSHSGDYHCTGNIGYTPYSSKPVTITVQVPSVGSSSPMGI
Briefly: SPR (Biacore), antibody captured on chip, FcgR extracellular domain as analyte, 25 C. On the technique in general: In SPR one partner is held on a chip, and binding of the other changes the refractive index at the surface.

For assay [3], the target named is T3, cynomolgus monkey FcγRIIa3 extracellular domain with C-terminal His-tag (cynomolgus monkey).
T3 construct: Expressed in FreeStyle 293 cells and purified; also called cyno FcγRIIa3; cynoFcgRIIa3; not shown: C-terminal His-tag
T3 chain: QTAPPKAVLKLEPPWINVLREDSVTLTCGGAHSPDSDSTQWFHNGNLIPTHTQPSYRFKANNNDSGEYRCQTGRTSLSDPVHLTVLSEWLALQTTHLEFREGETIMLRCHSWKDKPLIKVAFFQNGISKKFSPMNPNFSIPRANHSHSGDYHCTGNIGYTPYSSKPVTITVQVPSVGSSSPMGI
The assay is described as above.

The target in assay [4] is T4, cynomolgus monkey FcγRIIa2 extracellular domain with C-terminal His-tag (cynomolgus monkey).
T4 construct: Expressed in FreeStyle 293 cells and purified; also called cyno FcγRIIa2; cynoFcgRIIa2; not shown: C-terminal His-tag
T4 chain: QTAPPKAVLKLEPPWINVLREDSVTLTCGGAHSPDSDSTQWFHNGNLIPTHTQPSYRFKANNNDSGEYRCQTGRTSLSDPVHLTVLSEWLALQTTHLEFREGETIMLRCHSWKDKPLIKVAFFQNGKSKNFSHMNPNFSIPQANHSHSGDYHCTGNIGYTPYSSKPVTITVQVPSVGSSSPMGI
Described as above.

In assay [5] the target is T5, cynomolgus monkey FcγRIIIaS extracellular domain with C-terminal His-tag (cynomolgus monkey, UniProt Q8SPW2 21-206 at identity 1.00)).
T5 construct: Expressed in FreeStyle 293 cells and purified; also called cyno FcγRIIIaS; cynoFcγRIIIaS; not shown: C-terminal His-tag
T5 chain: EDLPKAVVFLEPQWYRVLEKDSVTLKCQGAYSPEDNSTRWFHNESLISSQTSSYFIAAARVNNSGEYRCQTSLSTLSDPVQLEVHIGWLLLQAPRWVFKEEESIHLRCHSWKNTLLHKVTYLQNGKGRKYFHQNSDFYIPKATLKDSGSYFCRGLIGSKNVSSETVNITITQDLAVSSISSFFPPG
Described as above.

Assay [6] has as its target T1, human FcγRIIaR extracellular domain …. The description is as above.
Assay [7] deals with T6, human FcγRIIb extracellular domain with C-terminal His-tag (human, UniProt P31994 43-217).
T6 construct: Expressed in FreeStyle 293 cells and purified; also called humanFcgRIIb; not shown: C-terminal His-tag
T6 sequence: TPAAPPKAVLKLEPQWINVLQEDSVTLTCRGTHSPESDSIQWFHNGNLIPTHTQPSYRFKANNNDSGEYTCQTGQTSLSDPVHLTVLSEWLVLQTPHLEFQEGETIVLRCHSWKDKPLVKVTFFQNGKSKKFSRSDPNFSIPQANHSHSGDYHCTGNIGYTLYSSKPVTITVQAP
Described as above.

In assay [8] the target is T7, cynomolgus monkey FcγRIIb extracellular domain with C-terminal His-tag (cynomolgus monkey).
T7 construct: Expressed in FreeStyle 293 cells and purified; also called cyno FcγRIIb; cynoFcγRIIb; not shown: C-terminal His-tag
T7 chain: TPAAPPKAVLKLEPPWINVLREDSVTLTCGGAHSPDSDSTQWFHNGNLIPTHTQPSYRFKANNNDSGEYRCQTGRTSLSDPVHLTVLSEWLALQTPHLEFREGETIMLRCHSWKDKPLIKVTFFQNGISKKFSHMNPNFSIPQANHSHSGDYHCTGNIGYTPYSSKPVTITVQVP
Described as above.

B1: M103205H795-MY172 / M103202L889-SK1 (antibody, human IgG1, kappa)
heavy: QVTLKESGPVLVKPTETLTLTCTVSGIDLSHDDISWVRQAPGKGLEWVGIISYAGSTYYASWAKGRLTISKDTSKNQVVLTMTNMDPVDTATYYCARGVPAYSHGGDLWGQGTLVTVSSASTKGPSVFPLAPSSKSTSGGTAALGCLVKDYFPEPVTVSWNSGALTSGVHTFPAVLQSSGLYSLSSVVTVPSSSLGTQTYICNVNHKPSNTKVDKKVEPKSCDKTHTCPPCPAPELLNGPSVFLFPPKPKDTLMISRTPEVTCVVVDVSEEDPEVKFNWYVDGVEVHNAKTKPREEQYNSTYRVVSVLTVLHQDWLNGKEYKCKVSNKALPAPIEKTISKAKGQPREPQVYTLPPSREEMTKNQVSLTCLVKGFYPSDIAVEWESNGQPENNYKTTPGVLDSDGSFFLYSKLTVDKSRWQQGNVFSCSVMHEALHNHYTQKSLSLSP
light: DIVMTQSPATLSLSPGERATLSCTSSQSVYHANWLSWFQQKPGQPPKLLIYWASTLAYGVPSRFSGSGSGTDFTLTISSLQPEDAATYYCAGGYGGGRYAFGQGTKVEIKRTVAAPSVFIFPPSDEQLKSGTASVVCLLNNFYPREAKVQWKVDNALQSGNSQESVTEQDSKDSTYSLSSTLTLSKADYEKHKVYACEVTHQGLSSPVTKSFNRGEC
notes: Position 396 variant derived from MY052, expressed with M103202L889-SK1 as light chain
As for B1, the “KD fold (SG1 = 1)” value in assay [1] is 0.4 fold. Besides, the Kd in assay [2] came to 2700 nM; in assay [3], 11000 nM; in assay [4] it was 2300 nM; in assay [5], 3300 nM; in assay [6], 3100 nM; in assay [7], 1800 nM. In assay [8], the Kd turned out to be 1200 nM.

B2: M103205H795-MY174 / M103202L889-SK1 (antibody, human IgG1, kappa)
heavy: QVTLKESGPVLVKPTETLTLTCTVSGIDLSHDDISWVRQAPGKGLEWVGIISYAGSTYYASWAKGRLTISKDTSKNQVVLTMTNMDPVDTATYYCARGVPAYSHGGDLWGQGTLVTVSSASTKGPSVFPLAPSSKSTSGGTAALGCLVKDYFPEPVTVSWNSGALTSGVHTFPAVLQSSGLYSLSSVVTVPSSSLGTQTYICNVNHKPSNTKVDKKVEPKSCDKTHTCPPCPAPELLNGPSVFLFPPKPKDTLMISRTPEVTCVVVDVSEEDPEVKFNWYVDGVEVHNAKTKPREEQYNSTYRVVSVLTVLHQDWLNGKEYKCKVSNKALPAPIEKTISKAKGQPREPQVYTLPPSREEMTKNQVSLTCLVKGFYPSDIAVEWESNGQPENNYKTTPIVLDSDGSFFLYSKLTVDKSRWQQGNVFSCSVMHEALHNHYTQKSLSLSP
light: DIVMTQSPATLSLSPGERATLSCTSSQSVYHANWLSWFQQKPGQPPKLLIYWASTLAYGVPSRFSGSGSGTDFTLTISSLQPEDAATYYCAGGYGGGRYAFGQGTKVEIKRTVAAPSVFIFPPSDEQLKSGTASVVCLLNNFYPREAKVQWKVDNALQSGNSQESVTEQDSKDSTYSLSSTLTLSKADYEKHKVYACEVTHQGLSSPVTKSFNRGEC
notes: as for B1
For B2, the “KD fold (SG1 = 1)” value in assay [1] came out at 0.8 fold. The equilibrium dissociation constant (Kd) was determined as 1500 nM in assay [2]; 6400 nM in assay [3]; 1600 nM in assay [4]; 2500 nM in assay [5]; 1400 nM in assay [6]; 850 nM in assay [7]. Moreover, the Kd in assay [8] turned out to be 650 nM.

B3: M103205H795-MY173 / M103202L889-SK1 (antibody, human IgG1, kappa)
heavy: QVTLKESGPVLVKPTETLTLTCTVSGIDLSHDDISWVRQAPGKGLEWVGIISYAGSTYYASWAKGRLTISKDTSKNQVVLTMTNMDPVDTATYYCARGVPAYSHGGDLWGQGTLVTVSSASTKGPSVFPLAPSSKSTSGGTAALGCLVKDYFPEPVTVSWNSGALTSGVHTFPAVLQSSGLYSLSSVVTVPSSSLGTQTYICNVNHKPSNTKVDKKVEPKSCDKTHTCPPCPAPELLNGPSVFLFPPKPKDTLMISRTPEVTCVVVDVSEEDPEVKFNWYVDGVEVHNAKTKPREEQYNSTYRVVSVLTVLHQDWLNGKEYKCKVSNKALPAPIEKTISKAKGQPREPQVYTLPPSREEMTKNQVSLTCLVKGFYPSDIAVEWESNGQPENNYKTTPHVLDSDGSFFLYSKLTVDKSRWQQGNVFSCSVMHEALHNHYTQKSLSLSP
light: DIVMTQSPATLSLSPGERATLSCTSSQSVYHANWLSWFQQKPGQPPKLLIYWASTLAYGVPSRFSGSGSGTDFTLTISSLQPEDAATYYCAGGYGGGRYAFGQGTKVEIKRTVAAPSVFIFPPSDEQLKSGTASVVCLLNNFYPREAKVQWKVDNALQSGNSQESVTEQDSKDSTYSLSSTLTLSKADYEKHKVYACEVTHQGLSSPVTKSFNRGEC
notes: as for B1
B3: the “KD fold (SG1 = 1)” value in assay [1] is 0.6 fold. For the same molecule, the Kd in assay [2] amounted to 1700 nM; in assay [3] it was 3000 nM; in assay [4] it was 1800 nM; in assay [5], 3100 nM; in assay [6], 1900 nM; in assay [7] it was 10000 nM. The Kd in assay [8] is 780 nM.

B4: M103205H795-MY175 / M103202L889-SK1 (antibody, human IgG1, kappa)
heavy: QVTLKESGPVLVKPTETLTLTCTVSGIDLSHDDISWVRQAPGKGLEWVGIISYAGSTYYASWAKGRLTISKDTSKNQVVLTMTNMDPVDTATYYCARGVPAYSHGGDLWGQGTLVTVSSASTKGPSVFPLAPSSKSTSGGTAALGCLVKDYFPEPVTVSWNSGALTSGVHTFPAVLQSSGLYSLSSVVTVPSSSLGTQTYICNVNHKPSNTKVDKKVEPKSCDKTHTCPPCPAPELLNGPSVFLFPPKPKDTLMISRTPEVTCVVVDVSEEDPEVKFNWYVDGVEVHNAKTKPREEQYNSTYRVVSVLTVLHQDWLNGKEYKCKVSNKALPAPIEKTISKAKGQPREPQVYTLPPSREEMTKNQVSLTCLVKGFYPSDIAVEWESNGQPENNYKTTPKVLDSDGSFFLYSKLTVDKSRWQQGNVFSCSVMHEALHNHYTQKSLSLSP
light: DIVMTQSPATLSLSPGERATLSCTSSQSVYHANWLSWFQQKPGQPPKLLIYWASTLAYGVPSRFSGSGSGTDFTLTISSLQPEDAATYYCAGGYGGGRYAFGQGTKVEIKRTVAAPSVFIFPPSDEQLKSGTASVVCLLNNFYPREAKVQWKVDNALQSGNSQESVTEQDSKDSTYSLSSTLTLSKADYEKHKVYACEVTHQGLSSPVTKSFNRGEC
notes: as for B1
For B4, in assay [1], the “KD fold (SG1 = 1)” value was determined as 0.7 fold. Moreover, the Kd in assay [2] was 1400 nM; in assay [3], 7500 nM; in assay [4], 1500 nM; in assay [5] it was 2600 nM; in assay [6] it was 1800 nM; in assay [7], 830 nM. Further, binding in assay [8] was characterised by a dissociation constant (Kd) of 710 nM.

In general, Kd refers to the constant that tells how readily two partners part at equilibrium.
